Results from patent US20250215101A1, “DR5 Agonist and PLK1 Inhibitor or CDK Inhibitor Combination Therapy” (Inhibrx Biosciences, Inc., priority 2022, published 2025).

What was measured:
Test in all cases: Cytotoxicity assay, colorectal cancer cell line panel, onvansertib +/- 1 nM INBRX-109
Format in all cases: cell-based
LoVo = conditions: 1 nM INBRX-109 only
Experimental: (§1) Monolayer cultures of each cell line were harvested for compound screening as detailed below.
(§2) Also on day 2, test and control articles were added.
(§3) On day 4, viability measurements were taken. […] Data was graphed in GraphPad Prism 9.
(§4) The results for a panel of colorectal cancer cell lines are shown in Table 3 and FIGS. 4-6, and the results for a panel of pancreatic cell lines are shown in Table 4 and FIGS. 7 and 8.

SW-1116 = conditions: SW-1116; 1 nM INBRX-109 only
Experimental: as §1, §2, §3, §4

NCI-H716 = conditions: NCI-H716; 1 nM INBRX-109 only
Experimental: as §1, §2, §3, §4

NCI-H747 = conditions: NCI-H747; 1 nM INBRX-109 only
Experimental: as §1, §2, §3, §4

HCT-15 = conditions: HCT-15; 1 nM INBRX-109 only
Experimental: as §1, §2, §3, §4

SW-948 = conditions: SW-948; 1 nM INBRX-109 only
Experimental: as §1, §2, §3, §4

SW-48 = conditions: SW-48; 1 nM INBRX-109 only
Experimental: as §1, §2, §3, §4

T84 = conditions: T84; 1 nM INBRX-109 only
Experimental: as §1, §2, §3, §4

SW-403 = conditions: SW-403; 1 nM INBRX-109 only
Experimental: as §1, §2, §3, §4

HT-55 = conditions: HT-55; 1 nM INBRX-109 only
Experimental: as §1, §2, §3, §4

RKO = conditions: 1 nM INBRX-109 only
Experimental: as §1, §2, §3, §4

SNU-C5 = conditions: 1 nM INBRX-109 only
Experimental: as §1, §2, §3, §4

HT-29 = conditions: HT-29; 1 nM INBRX-109 only
Experimental: as §1, §2, §3, §4

DLD-1 = conditions: DLD-1; 1 nM INBRX-109 only
Experimental: as §1, §2, §3, §4

SW-837 = conditions: SW-837; 1 nM INBRX-109 only
Experimental: as §1, §2, §3, §4

COLO320DM = conditions: 1 nM INBRX-109 only
Experimental: as §1, §2, §3, §4

LS 123 = conditions: LS 123; 1 nM INBRX-109 only
Experimental: as §1, §2, §3, §4

LS 180 = conditions: LS 180; 1 nM INBRX-109 only
Experimental: as §1, §2, §3, §4

SW-1463 = conditions: SW-1463; 1 nM INBRX-109 only
Experimental: as §1, §2, §3, §4

SW-480 = conditions: SW-480; 1 nM INBRX-109 only
Experimental: as §1, §2, §3, §4

SW620 = conditions: SW620; 1 nM INBRX-109 only
Experimental: as §1, §2, §3, §4

LS 1034 = conditions: LS 1034; 1 nM INBRX-109 only
Experimental: as §1, §2, §3, §4

Hutu 80 = conditions: Hutu 80; 1 nM INBRX-109 only
Experimental: as §1, §2, §3, §4

LS 513 = conditions: LS 513; 1 nM INBRX-109 only
Experimental: as §1, §2, §3, §4

HCT 116 = conditions: HCT 116; 1 nM INBRX-109 only
Experimental: as §1, §2, §3, §4

HCT-8 = conditions: HCT-8; 1 nM INBRX-109 only
Experimental: as §1, §2, §3, §4

SK-CO-1 = conditions: SK-CO-1; 1 nM INBRX-109 only
Experimental: as §1, §2, §3, §4

LS174T = conditions: 1 nM INBRX-109 only
Experimental: as §1, §2, §3, §4

SNU-81 = conditions: 1 nM INBRX-109 only
Experimental: as §1, §2, §3, §4

SNU-C2A = conditions: 1 nM INBRX-109 only
Experimental: as §1, §2, §3, §4

B1: INBRX-109: DR5-binding polypeptide consisting of SEQ ID NO: 7 (two VHH domains and an Fc region); DR5 agonist (protein)
chain: EVQLLESGGGEVQPGGSLRLSCAASGLTFPNYGMGWFRQAPGKEREFVSAIYWSGGTVYYAESVKGRFTISRDNAKNTLYLQMSSLRAEDTAVYYCAVTIRGAATQTWKYDYWGQGTLVTVKPGGSGGSEVQLLESGGGEVQPGGSLRLSCAASGLTFPNYGMGWFRQAPGKEREFVSAIYWSGGTVYYAESVKGRFTISRDNAKNTLYLQMSSLRAEDTAVYYCAVTIRGAATQTWKYDYWGQGTLVTVKPGGGGDKTHTCPPCPAPGGPSVFLFPPKPKDTLMISRTPEVTCVVVDVSHEDPEVKFNWYVDGVEVHNAKTKPREEQYNSTYRVVSVLTVLHQDWLNGKEYKCKVSNKALPAPIEKTISKAKGQPREPQVYTLPPSRDELTKNQVSLTCLVKGFYPSDIAVEWESNGQPENNYKTTPPVLDSDGSFFLYSKLTVDKSRWQQGNVFSCSVMHEALHNHYTQKSLSLSPGK
modifications: INBRX-109
notes: DR5 agonist
With B1 the “Max Cytotox at 1 nM” value (LoVo) was 16.2%, the “Max Cytotox at 1 nM” value (SW-1116) was 15.3% and the “Max Cytotox at 1 nM” value (NCI-H716) was 9.2%. The “Max Cytotox at 1 nM” value (NCI-H747) was 13.4%, the “Max Cytotox at 1 nM” value (HCT-15) was 49.6% and the “Max Cytotox at 1 nM” value (SW-948) was 98.5%. The “Max Cytotox at 1 nM” value (SW-48) was 93.9%, the “Max Cytotox at 1 nM” value (T84) was 9.1% and the “Max Cytotox at 1 nM” value (SW-403) was 15.7%. For the same molecule, the “Max Cytotox at 1 nM” value (HT-55) was 48.4%, the “Max Cytotox at 1 nM” value (RKO) was 3.6% and the “Max Cytotox at 1 nM” value (SNU-C5) was 48.6%. The “Max Cytotox at 1 nM” value (HT-29) was 19.9%, the “Max Cytotox at 1 nM” value (DLD-1) was 41.9% and the “Max Cytotox at 1 nM” value (SW-837) was 7.1%. The “Max Cytotox at 1 nM” value (COLO320DM) was 4.7%, the “Max Cytotox at 1 nM” value (LS 123) was 3.1% and the “Max Cytotox at 1 nM” value (LS 180) was 27.2%. The “Max Cytotox at 1 nM” value (SW-1463) was 28.5%, the “Max Cytotox at 1 nM” value (SW-480) was 19.7% and the “Max Cytotox at 1 nM” value (SW620) was 19.4%. The “Max Cytotox at 1 nM” value (LS 1034) was 56.9%, the “Max Cytotox at 1 nM” value (Hutu 80) was 4.0% and the “Max Cytotox at 1 nM” value (LS 513) was 92.3%. The “Max Cytotox at 1 nM” value (HCT 116) was 54.4%, the “Max Cytotox at 1 nM” value (HCT-8) was 6.7% and the “Max Cytotox at 1 nM” value (SK-CO-1) was 92.2%. The “Max Cytotox at 1 nM” value (LS174T) was 41.2%, the “Max Cytotox at 1 nM” value (SNU-81) was 82.1% and the “Max Cytotox at 1 nM” value (SNU-C2A) was 41.4%.
